Data on twelve substances can be found in US20210347891A1.

Assay [1] deals with single chain FcRn-β2m-his (human scFcRn, Acro Biosystems Cat. No. FCM-H5286) (human) (UniProt P55899). Briefly: FACS of E. coli spheroplasts displaying the IgG, 10 nM scFcRn-FITC at pH 5.8.
The target of assay [2] is dimeric human FcRn-β2m-GST (human) (UniProt P55899). Nature of the assay: FACS of E. coli spheroplasts displaying the IgG, 50 nM dFcRn-GST-APC at pH 7.4.
Assay [3] addresses single chain FcRn-β2m-his (human scFcRn, Acro Biosystems Cat. No. FCM-H5286) (human) (UniProt P55899). Nature of the assay: SPR, antibody on CM5 chip, scFcRn 400-25 nM, pH 5.8 PBS, 1:1 Langmuir.
In another assay the target is C1q (UniProt P02745). Nature of the assay: SPR, antibody on CM5 chip, C1q injected, pH 7.4 HBS-EP. On the technique in general: Surface plasmon resonance follows binding to a sensor surface in real time, without labels.
Chain of C1q (P02745 23-245 limits assumed, chain 1 of 3): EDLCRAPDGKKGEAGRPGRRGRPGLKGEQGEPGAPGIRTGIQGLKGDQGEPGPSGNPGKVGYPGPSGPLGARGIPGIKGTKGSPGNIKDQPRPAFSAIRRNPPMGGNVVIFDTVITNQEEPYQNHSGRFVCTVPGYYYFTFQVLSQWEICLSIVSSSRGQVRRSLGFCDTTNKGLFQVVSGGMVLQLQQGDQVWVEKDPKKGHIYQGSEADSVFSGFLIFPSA
Chain of C1q (P02746 28-253 limits assumed, chain 2 of 3, further chain): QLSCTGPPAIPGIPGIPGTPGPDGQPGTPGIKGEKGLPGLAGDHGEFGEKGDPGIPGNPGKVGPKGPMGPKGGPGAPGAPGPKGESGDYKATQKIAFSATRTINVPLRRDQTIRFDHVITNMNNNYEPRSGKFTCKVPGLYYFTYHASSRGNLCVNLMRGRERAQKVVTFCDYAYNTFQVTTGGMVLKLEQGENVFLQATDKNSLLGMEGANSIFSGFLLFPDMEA
Chain of C1q (P02747 29-245 limits assumed, chain 3 of 3, further chain): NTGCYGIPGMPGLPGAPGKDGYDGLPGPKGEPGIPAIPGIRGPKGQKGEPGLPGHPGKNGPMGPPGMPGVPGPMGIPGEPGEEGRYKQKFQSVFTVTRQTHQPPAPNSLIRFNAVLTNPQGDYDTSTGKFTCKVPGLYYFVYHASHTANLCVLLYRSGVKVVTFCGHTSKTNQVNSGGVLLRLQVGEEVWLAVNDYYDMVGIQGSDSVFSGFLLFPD
For assay [4], the target named is dimeric FcγRIIa-R131-GST (human) (human) (UniProt P12318). Briefly: ELISA: antibody coated, serially diluted GST-FcγRIIaR131 (the concentration is that of the receptor), anti-GST HRP. A general note: In an ELISA, binding on a coated surface is turned into a signal by an enzyme label.
Chain of dimeric FcγRIIa-R131-GST (human) (human) (P12318 34-218 H167R limits assumed): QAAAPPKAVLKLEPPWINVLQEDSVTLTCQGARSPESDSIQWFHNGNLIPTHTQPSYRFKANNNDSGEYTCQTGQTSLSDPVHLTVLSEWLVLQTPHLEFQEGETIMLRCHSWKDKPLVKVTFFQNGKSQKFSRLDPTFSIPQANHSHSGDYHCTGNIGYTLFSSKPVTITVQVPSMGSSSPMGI
Assay [5] concerns the target monomeric FcγRI-His (human) (human) (UniProt P12314). Nature of the assay: SPR, antibody on CM5 chip, receptor injected, pH 7.4 HBS-EP.
Assay [6] deals with dimeric FcγRIIa-H131-GST (human) (human) (UniProt P12318). The description is as above.
Chain of dimeric FcγRIIa-H131-GST (human) (human) (P12318 34-218 limits assumed): as the sequence (P12318 34-218 H167R limits assumed) above, with R134H counted along it
The target in assay [7] is dimeric FcγRIIa-R131-GST (human) (human) (UniProt P12318). The assay is described as above.
Assay [8] concerns the target dimeric FcγRIIIa-F158-GST (human) (human) (UniProt P08637). The description is as above.
Assay [9] has as its target dimeric FcγRIIb-GST (human) (human) (UniProt P31994). The description is as above.
In assay [10] the target is single chain FcRn-β2m-his (human scFcRn, Acro Biosystems Cat. No. FCM-H5286) (human) (UniProt P55899). Briefly: SPR, antibody on CM5 chip, FcRn/β2m injected, pH 5.8 (same values as Table 5).
Assay [11] deals with dimeric FcγRIIb-GST (human) (human) (UniProt P31994). Nature of the assay: ELISA: antibody coated, serially diluted GST-FcγRIIb (the concentration is that of the receptor), anti-GST HRP.
Chain of dimeric FcγRIIb-GST (human) (human) (P31994 43-217 limits assumed): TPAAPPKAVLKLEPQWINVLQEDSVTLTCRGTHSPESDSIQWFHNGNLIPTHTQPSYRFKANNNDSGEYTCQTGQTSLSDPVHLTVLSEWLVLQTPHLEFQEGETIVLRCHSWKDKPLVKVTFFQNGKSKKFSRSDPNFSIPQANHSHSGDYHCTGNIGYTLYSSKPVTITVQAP
The target of assay [12] is single chain FcRn-β2m-his (human scFcRn, Acro Biosystems Cat. No. FCM-H5286) (human) (UniProt P55899). Briefly: SPR, antibody on CM5 chip, scFcRn, pH 5.8.
The target is the same in assay [13]. Nature of the assay: SPR, antibody on CM5 chip, scFcRn 400-25 nM, pH 5.8 PBS.
Assay [14] shares this target. Nature of the assay: SPR at pH 7.4 PBS, scFcRn on CM5 chip at high density (4000 RU), antibody 400-25 nM injected.
Assay [15] addresses dimeric human FcRn-β2m-GST (human) (UniProt P55899). Briefly: ELISA at pH 7.4: antibody coated, serially diluted dFcRn (the concentration is that of dFcRn), anti-GST HRP.
Assay [16] deals with single chain FcRn-β2m-his (human scFcRn, Acro Biosystems Cat. No. FCM-H5286) (human) (UniProt P55899). Nature of the assay: SPR at pH 7.4 PBS, scFcRn on CM5 chip at medium density (2000 RU), antibody 400-25 nM injected.

Chain of monomeric FcγRI-His (human) (human) (P12314 16-288 limits assumed): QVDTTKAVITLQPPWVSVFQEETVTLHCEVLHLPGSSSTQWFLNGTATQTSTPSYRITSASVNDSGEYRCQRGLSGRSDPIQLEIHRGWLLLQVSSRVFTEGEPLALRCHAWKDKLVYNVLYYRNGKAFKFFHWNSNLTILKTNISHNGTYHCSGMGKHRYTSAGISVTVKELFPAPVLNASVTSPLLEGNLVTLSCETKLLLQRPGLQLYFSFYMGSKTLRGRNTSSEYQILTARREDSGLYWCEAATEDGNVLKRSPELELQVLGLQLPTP
Chain of single chain FcRn-β2m-his (human scFcRn, Acro Biosystems Cat. No. FCM-H5286) (human) (P55899 other isoform, or with tags, fused parts or gaps): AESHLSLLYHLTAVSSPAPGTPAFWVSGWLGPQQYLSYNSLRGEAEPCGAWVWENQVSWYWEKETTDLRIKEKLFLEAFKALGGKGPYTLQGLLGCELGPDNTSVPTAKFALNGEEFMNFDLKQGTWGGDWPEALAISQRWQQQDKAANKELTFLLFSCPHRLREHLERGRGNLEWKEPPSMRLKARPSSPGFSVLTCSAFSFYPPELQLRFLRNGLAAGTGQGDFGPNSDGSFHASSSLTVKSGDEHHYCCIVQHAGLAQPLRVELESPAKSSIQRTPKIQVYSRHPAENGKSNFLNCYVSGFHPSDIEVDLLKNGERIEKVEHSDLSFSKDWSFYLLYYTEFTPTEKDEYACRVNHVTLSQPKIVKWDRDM
Chain of dimeric human FcRn-β2m-GST (human) (P55899 other isoform, or with tags, fused parts or gaps limits assumed): as the sequence (P55899 other isoform, or with tags, fused parts or gaps) above
Chain of dimeric FcγRIIIa-F158-GST (human) (human) (P08637 17-208 limits assumed): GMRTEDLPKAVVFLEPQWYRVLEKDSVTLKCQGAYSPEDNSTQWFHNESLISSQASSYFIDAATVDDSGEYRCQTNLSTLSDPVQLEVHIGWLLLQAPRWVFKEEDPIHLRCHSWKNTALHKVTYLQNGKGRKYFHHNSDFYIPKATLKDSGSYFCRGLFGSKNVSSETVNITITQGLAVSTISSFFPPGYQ
Chain of Herceptin-IgG4 (wild type IgG4 with the Fab of trastuzumab) (antibody) (Fc): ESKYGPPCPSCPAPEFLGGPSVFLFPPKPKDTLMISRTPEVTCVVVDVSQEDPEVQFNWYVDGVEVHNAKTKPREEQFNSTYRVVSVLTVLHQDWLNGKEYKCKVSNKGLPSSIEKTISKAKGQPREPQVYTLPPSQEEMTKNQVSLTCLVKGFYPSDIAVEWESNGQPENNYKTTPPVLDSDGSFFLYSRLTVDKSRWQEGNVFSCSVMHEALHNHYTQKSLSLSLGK

As for “EDH (V264E, L309D, and Q311H), IgG displayed on E. coli spheroplasts (antibody)”, the M (mean fluorescence intensity) is 135 in [1] and 20.4 in assay [2].
The like results for “EDHS (V264E, L309D, Q311H, and N434S), IgG displayed on E. coli spheroplasts (antibody)” were, in that order, 239 and 60.3.
Regarding “EDHY (V264E, L309D, Q311H, and N434Y), IgG displayed on E. coli spheroplasts (antibody)”, the M (mean fluorescence intensity) in assay [1] was 265; in assay [2], 379.
The term Kd denotes the equilibrium constant for the complex coming apart. Low readings indicate tighter binding, high ones weaker binding. In general, EC50 (read off the curve) refers to the concentration giving half of the maximal effect. The low end stands for greater potency, the high end for weaker potency. With “Herceptin-DHS (L309D; Q311H; N434S) (antibody)”, the equilibrium dissociation constant (Kd) in assay [3] came to 0.111 µM; in the assay with C1q, 0.025 µM; in [5] it was 0.00028 µM; in [6], 0.27 µM; in [7], 0.95 µM; in assay [8] it was 0.48 µM. For the same substance, the Kd was found to be 2.91 µM in [9] and 0.11 µM in assay [10]. Further, the results for the EC50 (read off the curve) in [4] and in assay [11] were 0.007 µM and 0.004 µM, respectively.
By koff is commonly meant a measure of how fast the partners let go of each other. Read a high koff as fast dissociation. By kon is commonly meant a measure of how fast the partners come together. For “Herceptin-EDH (V264E, L309D, Q311H) (antibody)”, in assay [3], the Kd came to 0.487 µM, the dissociation rate constant (koff) was determined as 0.23 s⁻¹ and the kon worked out at 465000 M⁻¹ s⁻¹.
In assay [3], “Herceptin-EDHS (V264E, L309D, Q311H, N434S) (antibody)” yielded an equilibrium dissociation constant (Kd) of 0.093 µM, a koff of 0.11 s⁻¹ and a kon of 1.2e+06 M⁻¹ s⁻¹. In [12], the fold enhanced affinity than Herceptin stood at 5.9 fold.
As to “Herceptin-EDHY (V264E, L309D, Q311H, N434Y) (antibody)”, in assay [3], the equilibrium dissociation constant (Kd) was 0.028 µM, the koff came out at 0.038 s⁻¹ and the kon came out at 1.4e+06 M⁻¹ s⁻¹. The fold enhanced affinity than Herceptin in [12] amounted to 19.6 fold.
In turn, “Herceptin-IgG4 (wild type IgG4 with the Fab of trastuzumab) (antibody)” came in with a Kd in assay [13] of 2.46 µM.
Regarding Herceptin-LS (M428L/N434S) (antibody), the Kd in [3] was determined as 0.055 µM; with C1q, 0.016 µM; in [14], 0.0227 µM; in assay [5] it was 0.00058 µM; in assay [6], 0.41 µM; in [7], 1.21 µM. Besides, the Kd worked out at 2.25 µM in assay [9], 0.0587 µM in [16] and 0.055 µM in assay [10]. Besides, in assay [15], the EC50 (read off the curve) amounted to 0.01 µM.
Take “Herceptin-YTE (M252Y/S254T/T256E) (antibody)”: the dissociation constant (Kd) in assay [3] was 0.023 µM; with C1q, 0.042 µM; in assay [14], 4.29 µM; in assay [5], 0.00029 µM; in [6], 0.62 µM; in assay [7], 3.2 µM. For the same substance, the Kd in assay [8] was 4.41 µM; in [9] it was 6.24 µM; in assay [16], 4.73 µM; in assay [10], 0.023 µM.
Take M428L/N434S (antibody): the results for the M (mean fluorescence intensity) in assay [1] and in [2] were 152 and 83.3, respectively.
Taken in the same sequence, the figures for “TEDHY (A231T, V264E, L309D, Q311H, and N434Y), IgG displayed on E. coli spheroplasts (antibody)” were 231 and 237.
